Test results: patent US20180127503A1 (EUREKA THERAPEUTICS, published 2018)

Columns and labels:
[1] = molecular target: T1, human ROR2 expressed on the cell surface (human, UniProt Q01974 34-943); assay: flow cytometry, OCM1 cells (melanoma); parameters: unit not given here
T1 construct: Endogenous ROR2 of human tumour cell lines; also called cell surface ROR2; ROR2 on tumour cell lines
Protocol: (§1) Human tumour cell lines were authenticated using short tandem repeat (STR) analysis. They were cultured in RPMI1640 (Cellgro) supplemented with 10% fetal bovine serum (FBS, Life Technologies) at 37° C. in a 5% CO₂ humidified incubator. They were harvested, washed in PBS and reacted with ROR2-IgG at 1 ug/10⁶ tumour cells on ice for an hour. #901-IgG was used as a negative control at the same dose. After washing, a secondary PE-conjugated goat anti-human IgG, Fcγ fragment specific (1:100, Jackson ImmunoResearch) was added for another 30 min incubation. Staining was analyzed on a FACSCalibur (BD Biosciences). ROR2 (full length) antibody binding towards multiple cancer cell lines were compared with Rituxan and Herceptin antibodies. The cancer cell lines were derived from breast cancer, colorectal cancer, mesothelioma, hepatocellular carcinoma, ovarian cancer, osteosarcoma, neuroblastoma, etc. ROR2 #90 antibody could recognize most of the tumour cells tested, and in some cases, the binding intensity was higher than Herceptin (see Tables 8 to 10).

[2] = molecular target: T1, human ROR2 expressed on the cell surface; assay: flow cytometry, SKNMM cells (neuroblastoma); parameters: unit not given here
Protocol: as §1

[3] = molecular target: T1, human ROR2 expressed on the cell surface; assay: flow cytometry, NCI-H2052 cells (mesothelioma); parameters: reference not given here
Protocol: as §1

[4] = molecular target: T1, human ROR2 expressed on the cell surface; assay: flow cytometry, TC71 cells (EW/PNET); parameters: unit not given here
Protocol: as §1

[5] = molecular target: T1, human ROR2 expressed on the cell surface; assay: flow cytometry, AU565 cells (breast CA); parameters: unit not given here
Protocol: as §1

[6] = molecular target: T1, human ROR2 expressed on the cell surface; assay: flow cytometry, IMR32 cells (neuroblastoma); parameters: unit not given here
Protocol: as §1

[7] = molecular target: T1, human ROR2 expressed on the cell surface; assay: flow cytometry, U2OS cells (osteosarcoma); parameters: unit not given here
Protocol: as §1

[8] = molecular target: T1, human ROR2 expressed on the cell surface; assay: flow cytometry, SKES-1 cells (EW/PNET); parameters: unit not given here
Protocol: as §1

[9] = molecular target: T1, human ROR2 expressed on the cell surface; assay: flow cytometry, BE(2)S cells (neuroblastoma); parameters: unit not given here
Protocol: as §1

[10] = molecular target: T1, human ROR2 expressed on the cell surface; assay: flow cytometry, RG187 cells (osteosarcoma); parameters: unit not given here
Protocol: as §1

[11] = molecular target: T1, human ROR2 expressed on the cell surface; assay: flow cytometry, NMB7 cells (neuroblastoma); parameters: unit not given here
Protocol: as §1

[12] = molecular target: T1, human ROR2 expressed on the cell surface; assay: flow cytometry, HTB26 (MDA-MB-231) cells (breast CA); parameters: unit not given here
Protocol: as §1

[13] = molecular target: T1, human ROR2 expressed on the cell surface; assay: flow cytometry, HTB37-Caco2 cells (CRC); parameters: unit not given here
Protocol: as §1

[14] = molecular target: T1, human ROR2 expressed on the cell surface; assay: flow cytometry, CHP100 cells (EW/PNET); parameters: unit not given here
Protocol: as §1

[15] = molecular target: T1, human ROR2 expressed on the cell surface; assay: flow cytometry, OVCAR3 cells (ovarian CA); parameters: unit not given here
Protocol: as §1

[16] = molecular target: T1, human ROR2 expressed on the cell surface; assay: flow cytometry, SKHEP-1 cells (HCC); parameters: unit not given here
Protocol: as §1

[17] = molecular target: T2, human ROR2 extracellular domain (ROR2 ECD recombinant protein) (human, UniProt Q01974 34-403); assay: kinetic binding analysis, full length IgG1 on human ROR2-ECD
T2 construct: also called human ROR2-ECD; hROR2-ECD
T2 sequence (Q01974 34-403): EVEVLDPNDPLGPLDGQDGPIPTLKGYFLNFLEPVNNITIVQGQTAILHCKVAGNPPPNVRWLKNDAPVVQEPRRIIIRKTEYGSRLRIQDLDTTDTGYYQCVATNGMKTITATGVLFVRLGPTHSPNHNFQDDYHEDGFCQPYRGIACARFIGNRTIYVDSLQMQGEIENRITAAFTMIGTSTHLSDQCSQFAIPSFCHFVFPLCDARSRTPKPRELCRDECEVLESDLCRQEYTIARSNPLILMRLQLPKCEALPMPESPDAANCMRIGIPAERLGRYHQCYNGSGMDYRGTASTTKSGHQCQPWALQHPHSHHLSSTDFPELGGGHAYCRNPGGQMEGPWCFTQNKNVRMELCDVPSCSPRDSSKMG

[18] = molecular target: T1, human ROR2 expressed on the cell surface; assay: flow cytometry, HTB132 cells (breast CA); parameters: unit not given here
Protocol: as §1

[19] = molecular target: T1, human ROR2 expressed on the cell surface; assay: flow cytometry, COLO 205 cells (CRC); parameters: unit not given here
Protocol: as §1

[20] = molecular target: T1, human ROR2 expressed on the cell surface; assay: flow cytometry, SKMEL-5 cells (melanoma); parameters: unit not given here
Protocol: as §1

[21] = molecular target: T1, human ROR2 expressed on the cell surface; assay: flow cytometry, JN DSRCT cells (DSRCT); parameters: unit not given here
Protocol: as §1

[22] = molecular target: T1, human ROR2 expressed on the cell surface; assay: flow cytometry, MCF7 cells (breast CA); parameters: unit not given here
Protocol: as §1

[23] = molecular target: T1, human ROR2 expressed on the cell surface; assay: flow cytometry, SKBR3 cells (breast CA); parameters: reference not given here
Protocol: as §1

[24] = molecular target: T1, human ROR2 expressed on the cell surface; assay: flow cytometry, H345 cells (SCLC); parameters: unit not given here
Protocol: as §1

[25] = molecular target: T1, human ROR2 expressed on the cell surface; assay: flow cytometry, LAN-1 cells (neuroblastoma); parameters: unit not given here
Protocol: as §1

[26] = molecular target: T1, human ROR2 expressed on the cell surface; assay: flow cytometry, SKNJB cells (neuroblastoma); parameters: unit not given here
Protocol: as §1

[27] = molecular target: T1, human ROR2 expressed on the cell surface; assay: flow cytometry, HEP G2 cells (HCC); parameters: unit not given here
Protocol: as §1

T1 sequence (Q01974 34-943 limits assumed): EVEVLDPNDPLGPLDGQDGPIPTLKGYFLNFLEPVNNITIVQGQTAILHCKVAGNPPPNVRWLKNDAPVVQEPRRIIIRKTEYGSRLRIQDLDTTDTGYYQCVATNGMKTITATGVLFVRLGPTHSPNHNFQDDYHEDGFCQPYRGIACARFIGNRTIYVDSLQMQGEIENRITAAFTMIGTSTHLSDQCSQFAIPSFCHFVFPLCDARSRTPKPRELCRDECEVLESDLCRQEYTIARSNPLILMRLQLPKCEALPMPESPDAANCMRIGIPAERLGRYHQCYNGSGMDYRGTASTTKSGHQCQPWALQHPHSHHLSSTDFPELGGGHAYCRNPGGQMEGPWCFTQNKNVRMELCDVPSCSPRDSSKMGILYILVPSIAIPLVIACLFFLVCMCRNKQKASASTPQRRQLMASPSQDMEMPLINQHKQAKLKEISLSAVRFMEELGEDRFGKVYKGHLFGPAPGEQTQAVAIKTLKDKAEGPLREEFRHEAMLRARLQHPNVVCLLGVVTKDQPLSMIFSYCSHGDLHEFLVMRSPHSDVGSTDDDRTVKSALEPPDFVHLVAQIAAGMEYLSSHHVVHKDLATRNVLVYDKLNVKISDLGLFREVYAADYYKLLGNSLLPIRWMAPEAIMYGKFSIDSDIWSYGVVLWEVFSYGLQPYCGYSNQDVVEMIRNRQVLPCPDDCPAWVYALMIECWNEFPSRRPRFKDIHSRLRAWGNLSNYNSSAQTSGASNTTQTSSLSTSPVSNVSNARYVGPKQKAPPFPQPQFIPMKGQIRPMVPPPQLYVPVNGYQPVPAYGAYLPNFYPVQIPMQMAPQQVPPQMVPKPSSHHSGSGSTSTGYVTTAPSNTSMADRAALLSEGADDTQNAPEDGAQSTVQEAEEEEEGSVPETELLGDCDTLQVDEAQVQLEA

binding intensity [1]	binding intensity [2]	binding intensity [3]	binding intensity [4]	binding intensity [5]	binding intensity [6]	binding intensity [7]	binding intensity [8]	binding intensity [9]	binding intensity [10]	binding intensity [11]	binding intensity [12]	binding intensity [13]	binding intensity [14]	binding intensity [15]	binding intensity [16]	Kd [17] [nM]	koff [17] [s⁻¹]	kon [17] [M⁻¹ s⁻¹]	binding intensity [18]	Binder	other results
3	84	8	10	4	29	39	5	26	4	33	4	6	7	4	21	0.063	4.45e-05	706000	4	ROR2-240 full length human IgG1 antibody (antibody, V domains shown, also called clone #240 IgG1) VH: QITLKESGPELVKPTQTLTLTCTFSGFSLSTSGMSVSWIRQPPGKALEWLARIDWDDDKYYSTSLKTRLTISKDTSKNQVVLTMTNTDPVDTATYYCARGFYLAYGSYDSWGQGTLVTVSS VL: QSALTQPASVSGSPGQSITISCTGTSGDVGGYNYVSWYQHHPGKAPKLIIYDVNKRPSGFSDRFSGSKSGNTASLTISGLQAEDEADYYCSSYTSTSTVFGGGTKLTVLG	binding intensity [19]: 4; binding intensity [20]: 1; binding intensity [21]: 3; binding intensity [22]: 3; binding intensity [23]: 5; binding intensity [24]: 36; binding intensity [25]: 37; binding intensity [26]: 199; binding intensity [27]: 4
10	77	65	46	102	24	52	22	26	44	35	11	37	30	35	42	0.164	0.000432	2.63e+06	5	ROR2-23 full length human IgG1 antibody (antibody, V domains shown, The light chain of clone 023 is labelled kappa; also called clone #23; clone #023 IgG1) VH: EVQLVQSGAEVKKPGESLKISCQGSGYRFSKYWIGWVRQMPGKGLEWMGIIYPGDSDTRYSPSFQGQVTISADKSISTAYLQWSSLKASDTAMYYCARSFSSFIYDYWGQGTLVTVSS VL: ETTLTQSPGTLSVSPGERATLSCRASQSVSSNLAWYQQKRGQAPRLLIYGASTRATGIPVRFSGSGSGTEFTLTISRLEPEDFAVYYCQQYGRSPLTFGGGTKVDIKR	binding intensity [19]: 26; binding intensity [20]: 7; binding intensity [21]: 50; binding intensity [22]: 52; binding intensity [23]: 48; binding intensity [24]: 34; binding intensity [25]: 34; binding intensity [26]: 182; binding intensity [27]: 30
19	126	43	12	83	50	60	12	58	29	58	23	24	16	22	53	0.31	0.000538	1.74e+06	45	ROR2-241 full length human IgG1 antibody (antibody, V domains shown) VH: EVQLVQSGAEVKKPGASVKVSCKASGYTFTNYYIHWVRQAPGQGLEWMGIINPTSGRTRYAQRFQGRVTMTRDTSTNTVYMDLSSLRSEDTAMYYCARSGYYWGVNGDQWGQGTLVTVSS VL: SYELTQPLSVSVALGQTARITCGGNNIGSKNVHWYQQKPGQAPVLVIYRDSNRPSGIPERFSGSNSGNTATLTISRAQAGDEADYYCQVWDSSIVVFGGGTKLTVLG	binding intensity [19]: 24; binding intensity [20]: 5; binding intensity [21]: 27; binding intensity [22]: 21; binding intensity [23]: 27; binding intensity [24]: 49; binding intensity [25]: 68; binding intensity [26]: 238; binding intensity [27]: 36
